According to PMC3670040, “Structure of Lipid Kinase p110β/p85β Elucidates an Unusual SH2-Domain-Mediated Inhibitory Mechanism” (Molecular Cell, 2011):

Test system: p110β/p85β-nic
Test: ATPase activity (ADP formation) in the absence of lipid substrate, Transcreener
Type: biochemical, mouse
Conditions: 35 nM complex; Figure 1D
Method: Figure 1 Inhibition of p110β by p85-Type Regulatory Subunits and Activation of the Complexes by RTK Phosphopeptide (A) Domain organization of p110β and the regulatory subunits p85α, p85β, and p55γ. The color scheme for the domains is used for all figures, unless otherwise stated. […] The inhibition is released upon addition of the 10 μM PDGFR pY2. […] The y axis is expressed as a change in fluorescence polarization (ΔmP), which is obtained by subtracting the observed polarization for the construct at a given enzyme concentration from the maximum fluorescence polarization for that construct. The plateau in these assays arises due to the competitive nature of the ADP detection system, based on displacement of ADP-Alexa 633 tracer from the ADP^2-antibody by ADP generated during the PI3K assay (see Supplemental Experimental Procedures). All measurements were done in triplicates, and the error bars indicate the standard error of the mean (SEM). […]
The lipid kinase activity was determined using the Transcreener ADP2 FP Assay (BellBrook Labs, Madison, WI) according to manufacturer‟s specifications. This non-radioactive assay measures activity by quantitating the amount of ADP formed. The ADP formed by PI3K competes with fluorescent ADP tracer for binding to an anti-ADP antibody, thereby decreasing fluorescence polarization. […]

B1: p110β-ΔCter/nic: truncation mutant lacking 17 residues from the p110β C terminus; human ΔCter (1-1053) used in cells (protein, UniProt P42338 1-1053, looked up, fragment)
chain: MCFSFIMPPAMADILDIWAVDSQIASDGSIPVDFLLPTGIYIQLEVPREATISYIKQMLWKQVHNYPMFNLLMDIDSYMFACVNQTAVYEELEDETRRLCDVRPFLPVLKLVTRSCDPGEKLDSKIGVLIGKGLHEFDSLKDPEVNEFRRKMRKFSEEKILSLVGLSWMDWLKQTYPPEHEPSIPENLEDKLYGGKLIVAVHFENCQDVFSFQVSPNMNPIKVNELAIQKRLTIHGKEDEVSPYDYVLQVSGRVEYVFGDHPLIQFQYIRNCVMNRALPHFILVECCKIKKMYEQEMIAIEAAINRNSSNLPLPLPPKKTRIISHVWENNNPFQIVLVKGNKLNTEETVKVHVRAGLFHGTELLCKTIVSSEVSGKNDHIWNEPLEFDINICDLPRMARLCFAVYAVLDKVKTKKSTKTINPSKYQTIRKAGKVHYPVAWVNTMVFDFKGQLRTGDIILHSWSSFPDELEEMLNPMGTVQTNPYTENATALHVKFPENKKQPYYYPPFDKIIEKAAEIASSDSANVSSRGGKKFLPVLKEILDRDPLSQLCENEMDLIWTLRQDCREIFPQSLPKLLLSIKWNKLEDVAQLQALLQIWPKLPPREALELLDFNYPDQYVREYAVGCLRQMSDEELSQYLLQLVQVLKYEPFLDCALSRFLLERALGNRRIGQFLFWHLRSEVHIPAVSVQFGVILEAYCRGSVGHMKVLSKQVEALNKLKTLNSLIKLNAVKLNRAKGKEAMHTCLKQSAYREALSDLQSPLNPCVILSELYVEKCKYMDSKMKPLWLVYNNKVFGEDSVGVIFKNGDDLRQDMLTLQMLRLMDLLWKEAGLDLRMLPYGCLATGDRSGLIEVVSTSETIADIQLNSSNVAAAAAFNKDALLNWLKEYNSGDDLDRAIEEFTLSCAGYCVASYVLGIGDRHSDNIMVKKTGQLFHIDFGHILGNFKSKFGIKRERVPFILTYDFIHVIQQGKTGNTEKFGRFRQCCEDAYLILRRHGNLFITLFALMLTAGLPELTSVKDIQYLKDSLALGKSEEEALKQFKQKFDEALRESW
With B1 as the molecule, how does the “ATPase activity in the absence of lipid substrate” value read?
The value was “increased”.
